The results in this text go back to article doi:10.1101/2022.10.11.511834 (bioRxiv, 2022).

Changes are numbered by the printed parent chain. Names may count otherwise.

One experiment has as its target ubiquitin (UniProt P0CG48 1-76). Put plainly: crystal structure.
Another experiment concerns the target M1-linked di-Ub (UniProt P0CG48). Put plainly: ITC.

B1: HOIL-1 233-510 (C460A) (domain or fragment)
chain: DEEERARLAGEEEALRQYQQRKQQQQEGNYLQHVQLDQRSLVLNTEPAECPVCYSVLAPGEAVVLRECLHTFCRECLQGTIRNSQEAEVSCPFIDNTYSCSGKLLEREIKALLTPEDYQRFLDLGISIAENRSAFSYHCKTPDCKGWCFFEDDVNEFTCPVCFHVNCLLCKAIHEQMNCKEYQEDLALRAQNDVAARQTTEMLKVMLQQGEAMRCPQCQIVVQKKDGADWIRCTVCHTEICWVTKGPRWGPGGPGDTSGGCRCRVNGIPCHPSCQNCH
Consider B1, for which, in the experiment with ubiquitin, the binding result was “binds”.

B2: HOIL-1 233-510 (helix-RBR), wild type (domain or fragment)
chain: B1 chain with A228C
As for B2, the Kd in the experiment with M1-linked di-Ub was roughly 50 µM.

B3: RNF216 (511-784, C688A, pSer719) (domain or fragment)
chain: QLIECRCCYGEFPFEELTQCADAHLFCKECLIRYAQEAVFGSGKLELSCMEGSCTCSFPTSELEKVLPQTILYKYYERKAEEEVAAAYADELVRCPSCSFPALLDSDVKRFSCPNPHCRKETCRKCQGLWKEHNGLTCEELAEKDDIKYRTSIEEKMTAARIRKCHKCGTGLIKSEGANRMSCRCGAQMCYLCRVSINGYDHFCQHPRSPGAPCQECSRCSLWTDPTEDDEKLIEEIQKEAEEEQKRKNGENTFKRIGPPLEKPVEKVQRVEAL
modifications: phosphoserine at 719
As to B3, in the experiment with ubiquitin, the binding result was “binds”.
